# Reference: article PMC6693180
# Target: DTL (UniProt Q9NZJ0)
# Assay: co-IP with His tag antibody
# Conditions: reference: His-PDCD4 wild type; sites S67
substance,measurement,value
PDCD4 (from UniProt Q53EL6) His-PDCD4(S67A),binding against the reference,lost
